Test results from article PMC12102759 (2025).

B1: TPTE2 peptide 92-107 (Phosphatidylinositol 3,4,5-trisphosphate 3-phosphatase TPTE2), 16-mer library wild type / TLN1 PTB (TLN1 Phosphotyrosine-binding (PTB) domain, residues 309-401) (parent complex)
chain 1: LADLIFTDSKLYIPLE
chain 2: GVSFFLVKEKMKGKNKLVPRLLGITKECVMRVDEKTKEVIQEWNLTNIKRWAASPKSFTLDFGDYQDGYYSVQTTEGEQIAQLIAGYIDIILK
B2: AXIN1 peptide 237-252 (Axin-1), 16-mer library wild type / PP2A B56 (PPP2R5A B56 domain, residues 1-486) (parent complex)
chain 1: YLPTLNEDEEWKADQD
chain 2: not shown

Variants of: B1
Test: proteomic peptide phage display deep mutational scan (ProP-PD DMS): M13 P8 16-mer library selected against immobilised GST-tagged bait for four days (rounds), NGS of the eluted pools per day and pseudo-replica; bait immobilised on MaxiSorp plates (10 µg), library pre-cleared on GST, 2 h binding at 4 °C, five washes; one round per day, days 1-4; value from days 2 and 3

Point of comparison: chain 1 LADLIFTESKLYIPLE, screen value 0.00151 average fractional NGS count over selection days 2 and 3 (reads of this peptide / all reads for the bait, averaged over …. Against it:
- chain 1 LAELIFTDSKLYIPLE — lower, 0.000596 average fractional NGS count over selection days 2 and 3 (reads of this peptide / all reads for the bait, averaged over …
- chain 1 LADLIFTDSSLYIPLE — lower, 0.000449 average fractional NGS count over selection days 2 and 3 (reads of this peptide / all reads for the bait, averaged over …
- chain 1 LADLIFTDSTLYIPLE — lower, 0.000653 average fractional NGS count over selection days 2 and 3 (reads of this peptide / all reads for the bait, averaged over …
- chain 1 LADLIFTDSKIYIPLE — lower, 0.00106 average fractional NGS count over selection days 2 and 3 (reads of this peptide / all reads for the bait, averaged over …
- chain 1 LADMIFTDSKLYIPLE — lower, 0.000697 average fractional NGS count over selection days 2 and 3 (reads of this peptide / all reads for the bait, averaged over …
- chain 1 LADEIFTDSKLYIPLE — lower, 0.000131 average fractional NGS count over selection days 2 and 3 (reads of this peptide / all reads for the bait, averaged over …
- chain 1 LADDIFTDSKLYIPLE — lower, 0.0012 average fractional NGS count over selection days 2 and 3 (reads of this peptide / all reads for the bait, averaged over …
- chain 1 LADLIFMDSKLYIPLE — lower, 0.000146 average fractional NGS count over selection days 2 and 3 (reads of this peptide / all reads for the bait, averaged over …
- chain 1 LADLIFNDSKLYIPLE — lower, 0.000232 average fractional NGS count over selection days 2 and 3 (reads of this peptide / all reads for the bait, averaged over …
- chain 1 LADLIFQDSKLYIPLE — lower, 0.000521 average fractional NGS count over selection days 2 and 3 (reads of this peptide / all reads for the bait, averaged over …
- chain 1 LADLSFTDSKLYIPLE — lower, 0.000525 average fractional NGS count over selection days 2 and 3 (reads of this peptide / all reads for the bait, averaged over …
- chain 1 LADLAFTDSKLYIPLE — higher, 0.00216 average fractional NGS count over selection days 2 and 3 (reads of this peptide / all reads for the bait, averaged over …
- chain 1 LADLNFTDSKLYIPLE — lower, 0.00116 average fractional NGS count over selection days 2 and 3 (reads of this peptide / all reads for the bait, averaged over …
- chain 1 LADLLFTDSKLYIPLE — lower, 0.000706 average fractional NGS count over selection days 2 and 3 (reads of this peptide / all reads for the bait, averaged over …
- chain 1 LADLTFTDSKLYIPLE — lower, 0.000326 average fractional NGS count over selection days 2 and 3 (reads of this peptide / all reads for the bait, averaged over …
- chain 1 LADLIFTDSKLYIPLW — higher, 0.00358 average fractional NGS count over selection days 2 and 3 (reads of this peptide / all reads for the bait, averaged over …
- chain 1 LADLIFTDSKLYIPLP — lower, 0.00113 average fractional NGS count over selection days 2 and 3 (reads of this peptide / all reads for the bait, averaged over …
- chain 1 LADLIFTDSKLYIPLT — higher, 0.00391 average fractional NGS count over selection days 2 and 3 (reads of this peptide / all reads for the bait, averaged over …
- chain 1 LADLIFTDSKLYIPLK — lower, 0.000641 average fractional NGS count over selection days 2 and 3 (reads of this peptide / all reads for the bait, averaged over …
- chain 1 LADLIFTDSKLYIPME — higher, 0.00539 average fractional NGS count over selection days 2 and 3 (reads of this peptide / all reads for the bait, averaged over …
- chain 1 LADLIFTDSKLYIPRE — lower, 0.0012 average fractional NGS count over selection days 2 and 3 (reads of this peptide / all reads for the bait, averaged over …
- chain 1 LADLIFTDSKLYIPAE — lower, 0.000297 average fractional NGS count over selection days 2 and 3 (reads of this peptide / all reads for the bait, averaged over …
- chain 1 LADLIFTDSKLYIPSE — lower, 0.000436 average fractional NGS count over selection days 2 and 3 (reads of this peptide / all reads for the bait, averaged over …
- chain 1 LADLIFTDSKLYIPIE — lower, 0.00147 average fractional NGS count over selection days 2 and 3 (reads of this peptide / all reads for the bait, averaged over …
- chain 1 LADLIFTDSKLYIPGE — lower, 0.000168 average fractional NGS count over selection days 2 and 3 (reads of this peptide / all reads for the bait, averaged over …

Variants of: B2
Test: as above

Point of comparison: chain 1 D8Y, screen value 0.00257 average fractional NGS count over selection days 2 and 3 (reads of this peptide / all reads for the bait, averaged over …. Against it:
- chain 1 D8G — lower, 0.0025 average fractional NGS count over selection days 2 and 3 (reads of this peptide / all reads for the bait, averaged over …
- chain 1 D8Q — lower, 0.00238 average fractional NGS count over selection days 2 and 3 (reads of this peptide / all reads for the bait, averaged over …
- chain 1 D8H — higher, 0.00852 average fractional NGS count over selection days 2 and 3 (reads of this peptide / all reads for the bait, averaged over …
- chain 1 D8K — lower, 0.00103 average fractional NGS count over selection days 2 and 3 (reads of this peptide / all reads for the bait, averaged over …
- chain 1 D8S — higher, 0.0116 average fractional NGS count over selection days 2 and 3 (reads of this peptide / all reads for the bait, averaged over …
- chain 1 D8T — lower, 0.000632 average fractional NGS count over selection days 2 and 3 (reads of this peptide / all reads for the bait, averaged over …
- chain 1 D8F — lower, 0.000675 average fractional NGS count over selection days 2 and 3 (reads of this peptide / all reads for the bait, averaged over …
- chain 1 D8A — lower, 0.000509 average fractional NGS count over selection days 2 and 3 (reads of this peptide / all reads for the bait, averaged over …
- chain 1 D8L — higher, 0.00362 average fractional NGS count over selection days 2 and 3 (reads of this peptide / all reads for the bait, averaged over …
- chain 1 D8R — lower, 0.000182 average fractional NGS count over selection days 2 and 3 (reads of this peptide / all reads for the bait, averaged over …
- chain 1 D8E — lower, 0.000771 average fractional NGS count over selection days 2 and 3 (reads of this peptide / all reads for the bait, averaged over …
- chain 1 L5I — lower, 0.00162 average fractional NGS count over selection days 2 and 3 (reads of this peptide / all reads for the bait, averaged over …
- chain 1 L5W — lower, 0.000869 average fractional NGS count over selection days 2 and 3 (reads of this peptide / all reads for the bait, averaged over …
- chain 1 L5V — lower, 0.00197 average fractional NGS count over selection days 2 and 3 (reads of this peptide / all reads for the bait, averaged over …
- chain 1 W11F — lower, 0.0013 average fractional NGS count over selection days 2 and 3 (reads of this peptide / all reads for the bait, averaged over …
- chain 1 W11S — lower, 0.000194 average fractional NGS count over selection days 2 and 3 (reads of this peptide / all reads for the bait, averaged over …
- chain 1 W11T — lower, 0.000334 average fractional NGS count over selection days 2 and 3 (reads of this peptide / all reads for the bait, averaged over …
- chain 1 W11H — lower, 0.000184 average fractional NGS count over selection days 2 and 3 (reads of this peptide / all reads for the bait, averaged over …
- chain 1 W11R — lower, 0.000154 average fractional NGS count over selection days 2 and 3 (reads of this peptide / all reads for the bait, averaged over …
- chain 1 W11Y — lower, 0.000932 average fractional NGS count over selection days 2 and 3 (reads of this peptide / all reads for the bait, averaged over …
- chain 1 W11L — lower, 0.000123 average fractional NGS count over selection days 2 and 3 (reads of this peptide / all reads for the bait, averaged over …
- chain 1 Y1W — lower, 0.000316 average fractional NGS count over selection days 2 and 3 (reads of this peptide / all reads for the bait, averaged over …
- chain 1 Y1R — lower, 0.000195 average fractional NGS count over selection days 2 and 3 (reads of this peptide / all reads for the bait, averaged over …
- chain 1 Y1A — lower, 0.000622 average fractional NGS count over selection days 2 and 3 (reads of this peptide / all reads for the bait, averaged over …
- chain 1 Y1S — lower, 0.000305 average fractional NGS count over selection days 2 and 3 (reads of this peptide / all reads for the bait, averaged over …
- chain 1 Y1Q — lower, 0.000381 average fractional NGS count over selection days 2 and 3 (reads of this peptide / all reads for the bait, averaged over …
- chain 1 Y1V — lower, 0.000255 average fractional NGS count over selection days 2 and 3 (reads of this peptide / all reads for the bait, averaged over …
- chain 1 Y1L — lower, 0.00157 average fractional NGS count over selection days 2 and 3 (reads of this peptide / all reads for the bait, averaged over …
- chain 1 Y1H — lower, 0.000114 average fractional NGS count over selection days 2 and 3 (reads of this peptide / all reads for the bait, averaged over …
- chain 1 Y1K — lower, 0.000785 average fractional NGS count over selection days 2 and 3 (reads of this peptide / all reads for the bait, averaged over …
- chain 1 Q15S — lower, 0.00176 average fractional NGS count over selection days 2 and 3 (reads of this peptide / all reads for the bait, averaged over …
- chain 1 Q15A — lower, 0.00159 average fractional NGS count over selection days 2 and 3 (reads of this peptide / all reads for the bait, averaged over …
- chain 1 Q15R — lower, 0.000634 average fractional NGS count over selection days 2 and 3 (reads of this peptide / all reads for the bait, averaged over …
- chain 1 Q15T — higher, 0.0102 average fractional NGS count over selection days 2 and 3 (reads of this peptide / all reads for the bait, averaged over …
- chain 1 Q15G — lower, 0.00117 average fractional NGS count over selection days 2 and 3 (reads of this peptide / all reads for the bait, averaged over …
- chain 1 Q15V — lower, 0.000515 average fractional NGS count over selection days 2 and 3 (reads of this peptide / all reads for the bait, averaged over …
- chain 1 Q15N — higher, 0.00887 average fractional NGS count over selection days 2 and 3 (reads of this peptide / all reads for the bait, averaged over …
- chain 1 Q15F — higher, 0.00274 average fractional NGS count over selection days 2 and 3 (reads of this peptide / all reads for the bait, averaged over …
- chain 1 Q15P — lower, 0.000686 average fractional NGS count over selection days 2 and 3 (reads of this peptide / all reads for the bait, averaged over …
- chain 1 Q15L — higher, 0.00865 average fractional NGS count over selection days 2 and 3 (reads of this peptide / all reads for the bait, averaged over …
- chain 1 A13V — lower, 0.000342 average fractional NGS count over selection days 2 and 3 (reads of this peptide / all reads for the bait, averaged over …
- chain 1 A13R — lower, 0.000134 average fractional NGS count over selection days 2 and 3 (reads of this peptide / all reads for the bait, averaged over …
- chain 1 A13H — higher, 0.00442 average fractional NGS count over selection days 2 and 3 (reads of this peptide / all reads for the bait, averaged over …
